From PMC5689619

Assays:
[1] = target: GST-RAB40C (UniProt Q96S21)
[2] = target: GST-H-Ras (UniProt P01112)

Kcat/KM ratio (catalytic efficiency) of GAP-stimulated GTP hydrolysis, release of inorganic phosphate [1] | Kcat/KM ratio (catalytic efficiency) of GAP-stimulated GTP hydrolysis, release of inorganic phosphate [2] | Substance
114 | 229 | GST-GAP (DAB2IP GAP domain) (domain or fragment)
66 | 102 | GST-GAP R385L (DAB2IP GAP domain, catalytically defective mutant) (domain or fragment)
